This experiment concerns the target protein having a molecular weight of about 44,000 which constitutes the membrane-bound alcohol dehydrogenase complex of Acetobacter altoacetigenes MH-24 (cytochrome c) (Acetobacter altoacetigenes MH-24).

As to “protein having a molecular weight of about 72,000 which constitutes the membrane-bound alcohol dehydrogenase complex of Acetobacter altoacetigenes MH-24 (enzyme)”, the ADH enzyme activity (U/mg protein) in cell homogenate of transformed ADH-deleted mutant 10-80 was found to be 0.4 U/mg protein.

Source of the values: US5344777.
